We go through 21 molecules from patent publication US20120207760A1 (THERACLONE SCIENCES, published 2012).

B1: TCN-540 (5060_F05) (antibody, V domains shown)
VH: QVQLVQSGGGVVQPGRSLRLSCAASGFTFSSYAMHWVRQAPGKGLEWVAIISYDGNDQYYTDSVKGRFTISRDSSKVYLQMHRLRPEDTAVYYCAKEFETSGYFHGSFDYWGQGILVTVSS
VL: QSALTQPASVSGSPGQSITISCTGTSSDVGGYNYVSWYQQHPGKAPKLLIYEVTNWPSGVSNRFSGSKSGNTASLTISGLQAEDEADYYCSSYAGSSTWVFGGGTRVTVL
B2: TCN-534 (5249_B02) (antibody, V domains shown)
VH: QVQLVQSGAEVKKPGSSVKVSCRESGGTFNGYTITWVRQAPGQGLEWMGGIIPMMGTVNYAQKLQGRVTITTDYFTKTAYMDLNNLRSEDTAMYYCVKIRYTGQQLLWGQGTLVTVSS
VL: DIQMTQSPSTLSASIGDRVTITCRASQSIASWLAWYQQKPGKAPKLLIYEAVNLESGVPSRFSGSGSGTDFTLTISSLQPDDFATYFCQHYGTISQTFGGGTKVEIK
B3: TCN-547 (5092_F11) (antibody, V domains shown)
VH: QVQLQESGPGLVKPSQTLSLTCTVSGDSISSVDHYWSWIRQHPVKGLEWIGFMYYSASTYYNPSLKSRVTISTDTSKNQFSLRLSSVTAADTAVYYCARGTCAGDCSLHYYYYGLDVWGQGRTVTVSS
VL: DIQMTQSPSSLSASVGDRVTITCRASQSISSYLNWYQHKPGKAPKVLMYAVSILQSGVPSRFSGSGSGADFTLTISSLQPEDFATYYCQQSYSSPLTFGGGTKVEIK
B4: TCN-563 (5237_B21) (antibody, V domains shown)
VH: QVQLAQSGAEVKRPGSSVKVSCTASGGIFRKNAISWVRQAPGQGLEWMGGIIAVFNTANYAQKFQGRVKITADESGNTAYMELSSLRSDDTAVYYCASHPKYFYGSGSYPDFWGQGTLVTVSS
VL: QSALTQPRSVSGSPGQSVTISCTGSSSDVGASNSVSWYQQHPGKAPKLVIYDVTERPSGVPHRFSGSKSGNTASLTVSGLQPEDEADYFCCAYGGKYLVVFGGGTKVTVL
B5: TCN-523 (5248_A17) (antibody, V domains shown)
VH: QVQLVQSGAEVKKPGSSVKVSCKASGGSFSNYAFSWVRQAPGQGLEWMGGTIPLLGTTNYAQKFQGRVTISADQFTSTAYMELGSLRSEDTAVYYCTRRKMTTAFDSWGQGTLVTVSS
VL: QPVLTQPPSASASLGASVTLTCTLSSAYSNYKVDWYQQRPGKGPRFVMRVGTGGIVGSKGDGIPDRFSVLGSGLNRYLTIKNIQEEDESDYHCGADHGSGSNFVSPYVFGGGTKLTVL
B6: TCN-521 (3280_D18) (antibody, V domains shown)
VH: EVQLVQSGGGLVQPGGSLRLACVVSGFTVTSNYITWVRQAPGKGLEWVSVIYSHGRAYYSASVNGRFTISRHTSKNTVYLEMNSLRPEDTAVYYCAGGGLVGGYDEYFFDYWGQGTLATVSS
VL: ETVLTQSPGTLSLTPGERATLSCRVGQSVSGSHLAWYQQKPGQAPRLLIYGASSRATGIPDRFGGSVSGTDFTLTISRLEPEDSAVYYCQQYGDSRYTFGQGTKLEIK
B7: TCN-544 (5082_A19) (antibody, V domains shown)
VH: QVQLQESGPGLVKPSETLSLTCTVSRGSIGHYFWSWIRQPPGKGLEWIGYISYSGSTKYNPSLRSRVTISVDTSKNQFSLNLNSVTATDTALYYCAREDYDILTGAGPGMEVWGQGTTVTVSS
VL: QSMLTQPPSASGTPGQRVTISCSGSSSNIGSNTVNWFKHLPGTAPKLLIYRNDLRPSGVPDRFSGSKSGTSASLAISGLQSEDEADYYCATWDDSLNGFYVFGTGTKVTVL
B8: TCN-535 (5246_P19) (antibody, V domains shown)
VH: QVQLVQSGSEVKKPGTSVKVSCTASGSVFTNYGISWVRQAPGQGLEWMGGIIPLFGAAKYAQKFQGRVTITADESTKTVYMELSRLTSKDTAIYFCAKAPRVYEYYFDQWGQGTPVTVSS
VL: EIVLTQSPGTLSLSPGERATLSCRASQSVSSSQLAWYQQKPGQAPRLIIYGASTRATGIPDRFSGSGSGTDFTLTIGRLEPEDFAVFFCQQYSTSPPTFGQGTKVDFK
B9: TCN-526 (5084_C17) (antibody, V domains shown)
VH: EVLMVESGGGLVQPGGSVRLSCVASGFSFSSHWMTWVRQAPGKGLEWVANIEDDGGDKYYVDSVKGRFIISRDNAKNSVYLQMNSLRAEDTAVYFCARGSGSSDRSDYDPHYYYYLDVWGKGATVTVSS
VL: DIQLTQSPSSLSASVGDRVTITCRASQSISRYLNWYQQKPGKAPKLLLFAASTLLDGVPSRFSGSGSGTDFTLTISSLQPEDFATYYCQRNHSPSWTFGQGTRVEIK
B10: TCN-530 (5248_H10a) (antibody, V domains shown)
VH: QVQLVQSGAEVRKPGSSVKVSCKASGGPFMSYAIGWVRQAPGQGLEWMGGINPVFGRPHYAQKFQGRVTIATDDSTKTSYMELSSLTSEDTGMYYCASRYSRSSPGTFESWGQGTLVTVSS
VL: EIVMTQFPATLSVSPGERVTLSCRASQSVSNNLAWYQQKPGQPPRLLIYDASTRATGVPAKFSGTGSGTEFTLSISSLQSEDFAVYYCQQYHNWPPSYSFGLGTKLEIK
B11: TCN-536 (5095_N01) (antibody, V domains shown)
VH: QVQLQQWGAGLLKPSETLSLTCAVYGGSFSVSGYYWSWIRQPPGRGLEWIGEISHGGSTNYNPSLKSRVTISVDTTKNQFSLRLSSVTAADTAVYYCARGTDPDTEVYCRVGNCAAFDYWGQGSLVTVSS
VL: EIILAQSPGTLSLSPGERATLSCRASQFVSTRSLAWYQQRPGQAPRLLIYGASSRATGIPDRFSGSGSGTDFTLTISRLEPEDFAVYYCQHYGYSPRYAFGQGSKVEIK
B12: TCN-532 (5262_H18) (antibody, V domains shown)
VH: QVQLQESGPGLVKPSETLSLTCTVSGGSVSSETYYWSWIRQPPGKGLEWIGYIYYIGNTDYRPSLKSRVTISLDTSKNQFSLKLSSVTAADTAVYYCARGAYYDSSGYPAFYIWGQGTMVTVSS
VL: QSVLTQPPSVSGAPGQRVTISCTGSSSNIGSDYDVHWYKQLPGTAPKLLIFGNSNRPSGVPDRFSGSKSGTSASLAITGLQAEDEADYYCQSYDSSLSGFHVFGSGTKVTVL
B13: TCN-533 (5256_A17) (antibody, V domains shown)
VH: QVQLVQSGADVKKPGSSVTVSCKASGGSFSNYGINWVRQAPGQGLEWMGGIIPLINAPNYAPKFQGRVTITADMFSNIVSLQLTSLRTDDTAVYYCARRKMTTAIDYWGQGTLVTVSS
VL: QPVLSQPPSASASLGASVTLTCTLSSGFDNYQVAWYQQRPGKGPRFVMRVGNGGNVASKGDGIPDRFSVSGSGLNRYLTIKNIQEDDESDYYCGADHGSGNNFVSPYVFGGGTKLTVL
B14: TCN-545 (5082_I15) (antibody, V domains shown)
VH: QVQLQQWGAGLLKPSETLSLSCAVFGGSFSDYYWTWIRQPPGKGLEWIGEIKHSGRTNYNPSLESRVTISVDTSKNQFSLKLSSVTAADTAIYYCARGTDPDTEGYCRSGSCSAFDFWGQGTLVTVSS
VL: EIVLTQSPGTLSLSPGERATLSCRASHFVNYRSLAWYQQTPGQVPRLLIYGASTRATGIPDRFSGSGSGTDFTLTISRLEPEDFAVYFCQQYGGSPRYTFGQGTRLEIK
B15: TCN-542 (5079_A16) (antibody, V domains shown)
VH: QVQLQESGPGLVKPSQTLSLTCTVSGGSISSGNYYWNWVRQHPGKGLEWIGYIYYRGSTFYNPSLKSRVTISIDTSKNQFSLRLSSVTAADTAVYYCAKDTRSSLDNYQYGMDVWGQGTTVTVSS
VL: QTVVTQEPSLTVSPGGTVTLTCASSTGAVTSSYFPNWFQQKPGQAPRPLIYSTTIRHSWTPARFSGSLLGGKAALTLSGVQPEDEADYYCLLYSGGDPVAFGGGTKLTVL
B16: TCN-546 (5089_L08) (antibody, V domains shown)
VH: QVQLQQWGAGLLKPSETLSLTCGVYGGSLSDYYWSWIRQPPGKGLEWIGEINHSGGTNYNPSLKRRVTISVDTSKKQFSLKMNSVTAADTAVYYCARGTDPDTEVYCRAGNCAAFDFWGQGTLVTVSS
VL: EIVLTQSPGTLSLSPGERATLSCRASHFVIGRAVAWYQQKPGQAPRLLIYGASSRATGIPDRFSGSGSGTDFTLTISRLETEDFAVFYCQHYGSSPRYAFGQGTKLEIK
B17: TCN-531 (5091_H13) (antibody, V domains shown)
VH: EVQLVESGGDLVQPGRSLKLSCTGSGFTFGDYGVTWVRQAPGKGLEWVGFIRTRPWGGTADTAASVKGRFTISRDDSKSLAYLQMNSLKTEDTAVYYCCRDAPPNVEVASMTNWYFDLWGRGTLVTVSS
VL: DIQLTQSPSSLSASVGDRVTITCRASQGILNCLAWYQQKPGKVPNLLMYAASTLQSGVPSRFSGSGFGTDFTLTISSLQPEDVATYYCQTYGGVSTFGGGTKVEIR
B18: TCN-528 (5087_P17) (antibody, V domains shown)
VH: QVQLVQSGSEVKKPGASVKVSCKASGYTFTNYDINWIRQAPGQGLEWMGWINPNSGTTGSAQRFQGRVTITVDTSITTVYMELSSLRSDDTAIYYCARGRELLRLQHFLTDSQSERRDCFDPWGQGTLVTVSS
VL: DIQMTQSPSSLSASVGDRVTITCRANQDIGIYLNWYQQNPGKVPKLLLHGASSLQGGVPSRFSASGSGTDFTLTIHSLQPEDLATYYCQQSRRLPYTFGQGTRVELK
B19: TCN-543 (5081_G23) (antibody, V domains shown)
VH: QVHLVQSGAEVRKPGDSVKVSCKTSGYTFSTYPVAWVRQVPGQGLEWMGWISTYNGNTNFAQNFQGRVTLTTDTTTNTAYMEVRSLKFDDTAVYYCARVEGSYRDFWNNQNRFDPWGQGTLVTVSS
VL: SYVLTQPPSVSVAPGQTARISCGGSNIGGKSVHWYQQKPGQAPVLVVYDDSGRPSGIPERFSGSNSGDTATLTISRVEAGDEADYFCQVWDNFGGVFGTGTKVTVL
B20: TCN-527 (5086_C06) (antibody, V domains shown)
VH: QVQLQESGPGLVKPSETLSLNCAVSGGSISNYYWSWIRQPPGKGLEWIGYISYNGRPKYNPSLTSRVTISVDTSKDQFSLELRSVTAADTALYYCARETRFGELLSPYDAFEIWGQGTMVTVSS
VL: DIQMTQSPSSLSASVGDRVTMTCRASQNIRSYLNWYQQRPGTAPKLLIYAASTLHSGVPSRFSGGGSGTDFTLTINNLQPEDFASYYCQQSYDNPQTFGQGTKVEIK
B21: TCN-539 (5056_A08) (antibody, V domains shown)
VH: QVQLVESGGGVVQPGRSLRLSCAASEITFITYAMHWVRQAPGKGLEWVALISDDGSNKFYADSVKGRFTISRDNSKNTLYLQMNSLRAEDTAAYYCAREGVYFDSGTYRGYFDYWGQETLVTVSS
VL: EIVLTQSPATLSLSPGERATLSCRASQSVSSYLAWYQQKPGQAPRLLIYDASNRATGIPARFSGSGSGTDFTLTISSLEPEDFAVYYCQQRSHWPPITFGQGTRLEIK

In this assay the target is Hemagglutinin of influenza A/Solomon Islands/3/06 (H1N1), on inactivated whole virions (Influenza A virus A/Solomon …). Nature of the assay: ELISA, B cell culture supernatant on inactivated whole virions. (ELISA stands for enzyme-linked immunosorbent assay.)
Take B1: the OD450 came out at 0.07 OD450.
Next, B2: 3.55 OD450; B3: 0.06 OD450.
B4 displayed an OD450 of 3.62 OD450.
The molecule B5 registered an OD450 of 3.47 OD450.
Molecule B6 returned an OD450 of 3.7 OD450.
For B7 the value was 0.32 OD450.
B8 yielded an OD450 of 3.43 OD450.
Turning to B9, the OD450 was 0.06 OD450.
Take B10: the OD450 came out at 3.52 OD450.
The molecule B11 returned an OD450 of 3.63 OD450.
Next, B12: 0.06 OD450; B13: 3.54 OD450.
As to B14, the OD450 was found to be 3.32 OD450.
Next, B15: 3.66 OD450; B16: 1.95 OD450; B17: 3.23 OD450.
For B18 the value was 3.62 OD450; for B19, 3.63 OD450; for B20, 3.03 OD450.
B21 yielded an OD450 of 0.06 OD450.
